The values below come from the Immune Epitope Database (IEDB).

Holding throughout (assay): IEDB peptide-MHC binding, purified MHC/competitive/radioactivity; filed as Kd, often an IC50 or EC50 that approximates it; ≥ and ≤ were set here for values at or beyond the usual limits of such assays
Assay [1] has as its target HLA-A*11:01.
The target in assay [2] is HLA-A*03:01.
Assay [3] addresses HLA-A*31:01.
Assay [4] has as its target HLA-A*68:01.
In assay [5] the target is HLA-A*33:01.
Where [6] appears, read: source organism: Dengue virus 2 Jamaica/1409/1983.
The mark [7] stands for this setting: source organism: Triticum aestivum.
[8] abbreviates: source organism: Dengue virus 4 Philippines/H241/1956.
Where [9] appears, read: source organism: SARS coronavirus Tor2.
Setting [10] is: source organism: Vaccinia virus WR.
[11] abbreviates: source organism: Lymphocytic choriomeningitis virus (strain Armstrong).
[12] abbreviates: source organism: Dengue virus 1 Nauru/West Pac/1974.
[13] abbreviates: source organism: Mammarenavirus guanaritoense.
[14] abbreviates: source organism: Mammarenavirus machupoense.

The term Kd denotes the concentration at which binding is half-saturated.

Bounds are passed on as bounds.

Turning to AIFLTTLSR, the Kd in assay [1] (setting [6]) was found to be 65.7 nM; in assay [2] (setting [6]) it was 61.5 nM.

Take AIILHQQQK: the Kd is not below 20600 nM in assay [3] (setting [7]); 941 nM in assay [4] (setting [7]); 38.2 nM in assay [1] (setting [7]); not below 77700 nM in assay [5] (setting [7]); 104 nM in assay [2] (setting [7]).

Turning to AINVLRGFRK, the dissociation constant (Kd) in assay [1] (setting [6]) was found to be 257 nM; in assay [2] (setting [6]) it was 91.8 nM.

On to ALAPPVNDLK, for which, in assay [2] (setting [8]), the Kd is 48.1 nM.

Consider ALLGKKKNPR, for which the dissociation constant (Kd) in assay [3] (setting [8]) amounted to 357 nM.

In the case of AQPCSDKAYK, the dissociation constant (Kd) in assay [3] (setting [9]) is 1130 nM; in assay [4] (setting [9]) it was 6260 nM; in assay [1] (setting [9]) it was 67.6 nM; in assay [5] (setting [9]) it was 9490 nM; in assay [2] (setting [9]), 319 nM.

As to ASAFFGMSR, the Kd is 21.9 nM in assay [3] (setting [9]); 197 nM in assay [4] (setting [9]); 148 nM in assay [1] (setting [9]); not below 41500 nM in assay [5] (setting [9]); 3170 nM in assay [2] (setting [9]).

Take ATLKNVTEVK: the equilibrium dissociation constant (Kd) in assay [1] (setting [8]) was 279 nM.

As to ATSSFREKSR, the Kd in assay [3] (setting [10]) was found to be 3.61 nM; in assay [4] (setting [10]) it was 1.92 nM; in assay [1] (setting [10]), 1.38 nM; in assay [5] (setting [10]) it was 163 nM; in assay [2] (setting [10]), 59.1 nM.

As to ATYLGPQFCK, in assay [1] (source organism: Mammarenavirus lassaense), the Kd was 3.25 nM.

As to CAAYYFMKFR, the Kd in assay [3] (setting [9]) came out at 10.9 nM; in assay [4] (setting [9]), 70.5 nM; in assay [1] (setting [9]) it was 65 nM; in assay [5] (setting [9]) it was 141 nM; in assay [2] (setting [9]) it was 209 nM.

As to DAYNIADAAR, the Kd in assay [3] (setting [10]) worked out at 19.2 nM; in assay [4] (setting [10]), 1.28 nM; in assay [1] (setting [10]), 613 nM; in assay [5] (setting [10]), 0.812 nM; in assay [2] (setting [10]), 16000 nM.

As to DITFLRPVLK, the dissociation constant Kd is 259 nM in assay [3] (setting [10]); 42.3 nM in assay [4] (setting [10]); 72.1 nM in assay [1] (setting [10]); 5840 nM in assay [5] (setting [10]); 157 nM in assay [2] (setting [10]).

DKYGWLCKMH: the equilibrium dissociation constant (Kd) was not below 59200 nM in assay [3] (setting [11]); not below 70100 nM in assay [4] (setting [11]); not below 69700 nM in assay [1] (setting [11]); not below 70000 nM in assay [5] (setting [11]); not below 70000 nM in assay [2] (setting [11]).

For DLKWARFPK, the equilibrium dissociation constant (Kd) is 391 nM in assay [3] (setting [9]); 51.5 nM in assay [4] (setting [9]); 714 nM in assay [1] (setting [9]); 20 nM in assay [5] (setting [9]); 5640 nM in assay [2] (setting [9]).

DSYTQVCDHR: the equilibrium dissociation constant (Kd) in assay [5] (setting [12]) is 1820 nM.

Regarding ECLRRRVTR, the Kd in assay [5] (setting [8]) worked out at 244 nM.

In the case of ECYVQRFFLR, the dissociation constant (Kd) came to 6 nM in assay [3] (setting [13]), 279 nM in assay [4] (setting [13]), 44.9 nM in assay [5] (setting [13]) and 17600 nM in assay [2] (setting [13]).

Consider EECLRRRVTR, for which the Kd in assay [5] (setting [8]) came to 779 nM.

On to FADNDRQDIY, for which the dissociation constant Kd in assay [3] (setting [10]) was not below 70000 nM; in assay [4] (setting [10]), 1250 nM; in assay [1] (setting [10]), not below 46000 nM; in assay [5] (setting [10]), not below 70000 nM; in assay [2] (setting [10]), not below 70100 nM.

Regarding FFAYVMNIER, the Kd in assay [3] (setting [10]) amounted to 104 nM; in assay [4] (setting [10]), 3.22 nM; in assay [1] (setting [10]), 10800 nM; in assay [5] (setting [10]), 15 nM; in assay [2] (setting [10]), 1120 nM.

Turning to FIHMVRCCK, the Kd in assay [3] (setting [10]) was determined as 421 nM; in assay [4] (setting [10]) it was 6.32 nM; in assay [1] (setting [10]) it was 2010 nM; in assay [5] (setting [10]), 360 nM; in assay [2] (setting [10]) it was 267 nM.

With FLELKRGIYK, the Kd in assay [3] (setting [10]) is 120 nM; in assay [4] (setting [10]), 89.1 nM; in assay [1] (setting [10]) it was 1.19 nM; in assay [5] (setting [10]) it was 945 nM; in assay [2] (setting [10]) it was 4.84 nM.

With FLMAFANQIH, the dissociation constant Kd was not below 70000 nM in assay [3] (setting [14]); not below 31800 nM in assay [4] (setting [14]); not below 69700 nM in assay [1] (setting [14]); not below 23800 nM in assay [5] (setting [14]); 11800 nM in assay [2] (setting [14]).

Turning to FLSGRGLGK, the Kd in assay [2] (setting [12]) stood at 91 nM.

As to FSGKEPISDY, the equilibrium dissociation constant (Kd) in assay [3] (setting [10]) was not below 70000 nM; in assay [4] (setting [10]) it was not below 67000 nM; in assay [1] (setting [10]), not below 52400 nM; in assay [5] (setting [10]) it was not below 70000 nM; in assay [2] (setting [10]) it was not below 70100 nM.

For the sequence FTTNIWLKLR, the values for the equilibrium dissociation constant (Kd) in assay [4] (setting [6]) and in assay [5] (setting [6]) were 28.6 nM and 68.3 nM, respectively.

As to FTTNIWMKFR, the dissociation constant (Kd) in assay [3] (setting [8]) came to 1.57 nM; in assay [4] (setting [8]), 1.73 nM; in assay [5] (setting [8]) it was 29.5 nM.

Take FWKLVDRER: the Kd in assay [5] (source organism: Dengue virus 3 Martinique/1243/1999) was 44.6 nM.

Turning to GFDAWFSQR, the dissociation constant (Kd) was 131 nM in assay [3] (setting [9]); 4270 nM in assay [4] (setting [9]); not below 29900 nM in assay [1] (setting [9]); 654 nM in assay [5] (setting [9]); 17800 nM in assay [2] (setting [9]).

As to GLILFVLALY, the dissociation constant (Kd) was not below 43900 nM in assay [3] (setting [10]); 457 nM in assay [4] (setting [10]); 7250 nM in assay [1] (setting [10]); not below 26800 nM in assay [5] (setting [10]); not below 22000 nM in assay [2] (setting [10]).

Take GVTATITPR: in assay [3] (setting [8]), the dissociation constant (Kd) amounted to 14.9 nM.
